From paper PMC3230630

Assays:
[1] = biological target: wild type (WT) AcrB (E. coli) (UniProt P31224); experiment: native gel or EMSA; blue native (BN)-PAGE of freshly purified protein, 4–20% gradient gel, no DTT
[2] = biological target: CLAcrB_(P223G/V225C/A777C) (E. coli) (UniProt P31224); experiment: as above
[3] = biological target: CLAcrB_(P223G/V225C/A777C) (E. coli) (UniProt P31224); experiment: cross-linking; inter-subunit disulfide trapping (C225–C777) in vivo: membrane vesicles from BW25113ΔacrB extracted in the presence of IAM, SDS-PAGE without DTT, Western blot with anti-AcrB

Row | Substance | stoichiometry N [1] | stoichiometry N [2] | stoichiometry N [3]
1 | wild type (WT) AcrB (from UniProt P31224 1-1049) (natural protein) | 3 | – | –
2 | CLAcrB_(P223G/V225C/A777C) (from UniProt P31224 1-1049) (natural protein) | – | 3 | 3
